Reference: patent US9512459B2 (priority 2011, dated 2016)

Substrate: OC[C@H]1OC(O)[C@H](O)[C@@H](O)[C@@H]1O
Test: cells, lysate or membranes named
Conditions: other: 60 ml culture, crude enzyme, glucose 1-40 mM, pH 6.5, DCIP/PMS, 20.0 °C

B1: Aspergillus niger glucose dehydrogenase (FAD-GDH) Ang-n1, wild type, SEQ ID NO: 2 (20 N-terminal residues deleted, Ala21 substituted by Met) (Aspergillus niger … (protein)
chain: MDSPAHYDFVIVGGGTSGLVVANRLSELSDVTVAVIEAGESALNNFNVSNVMGYSTAFGTEVDWAYQTENQTYAGGLQQTIRAGKALGGTSTINGMSYTRAEDVQIDNWEVLGNDGWNWKNLFQYYKKSEGFQVPTKDQIAHGASYNASYHGLNGPLKVGWPNSMTNSSVFPVLEQTFEKLGVQYNPDSEGGKMVGFTVHPDTLDREMNVREDAARAYYWPYEARSNLKIISNTRANKVIWANTTQGEAVAVGIEVTNAYGTETIYADKEVILSAGALRSPAILELSGIGNPDVLNKHNIPVKVNITTVGENLQDQTNNALSWEGVDTLTGLATFSVLPSVNQLYGDNVTALASYVKSQLASYAKTVASASNGAVKEANLVEAFERQYDLIFNSQVPYTEVVFAPSGNSFAVEYWPLLPFSRGSVHIQSANASDYPAINPNYFMFDQDAEAQVTVAQYIRKALGTAPLNSLVGEEVSPGLDVLPASASSATWTKWVKENYRTNYHPVGTTSMLPREKGGVVSPELKVYGTKNVRVVDASVLPFQLCGHLTSTLYAVAERASDLIKESY
- Km: 3.6 mM
